In this test the target is T1, Ecdysteroid receptor (EcR), ligand binding part (C-terminus of D- and E-domain) (UniProt P34021 400-655).
T1 sequence (looked up): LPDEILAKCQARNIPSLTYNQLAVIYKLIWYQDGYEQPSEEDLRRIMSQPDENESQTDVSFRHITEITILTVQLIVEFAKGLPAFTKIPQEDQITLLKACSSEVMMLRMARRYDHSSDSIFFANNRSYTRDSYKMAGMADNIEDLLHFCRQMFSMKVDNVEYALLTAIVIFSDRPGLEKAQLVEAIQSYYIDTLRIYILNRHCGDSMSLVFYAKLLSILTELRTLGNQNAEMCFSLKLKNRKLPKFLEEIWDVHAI
Kind of test: native gel or EMSA. (A gel shift assay detects complexes by their altered migration in electrophoresis.)

B1: Ultraspiracle (USP), ligand binding part (C-terminus of D- and E-domain) (domain or fragment, UniProt P20153 230-508, looked up)
chain: MTNSVSRDFSIERIIEAEQRAETQCGDRALTFLRVGPYSTVQPDYKGAVSALCQVVNKQLFQMVEYARMMPHFAQVPLDDQVILLKAAWIELLIANVAWCSIVSLDDGGAGGGGGGLGHDGSFERRSPGLQPQQLFLNQSFSYHRNSAIKAGVSAIFDRILSELSVKMKRLNLDRRELSCLKAIILYNPDIRGIKSRAEIEMCREKVYACLDEHCRLEHPGDDGRFAQLLLRLPALRSISLKCQDHLFLFRITSDRPLEELFLEQLEAPPPPGLAMKLE
B1: the “fold of the affinity constant of heterodimerization against homodimerization” value is approximately 10 fold.

For the origin of these results see PMC405831 (Journal of Insect Science, 2002).
